The nature of this data set: protein stability index of a GFP-peptide fusion (GPS, HEK-293T) (PSI 1-6); higher = more stable. The following applies: c terminus: a fixed tail appended.

± gives the standard deviation.
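Also: 24-mer peptide tiles fused after GFP, lentivirally expressed, FACS-sorted into six equal bins by GFP/DsRed ratio, decoded by Illumina sequencing, PSI is the read-weighted mean bin number.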

For VLAIIAREGDCAPEEKIWEELSVL [MAGEA3], the protein stability index runs as follows: (treatment: DMSO) 2.62 ± 0.48; (treatment: MLN4924 1 uM, 8 h) 2.42 ± 0.4.
The like results for SASRKSAEQLRIELNAEKFKNSLL [WEE1] were, in that order, 3.2 ± 0.3 and 3.29 ± 0.38.
With RPQLPQVLQHVRLPLLSPKFLVGT [KLHL20], the protein stability index is 2.8 ± 0.12 (treatment: DMSO) and 2.58 ± 0.26 (treatment: MLN4924 1 uM, 8 h).
For MQAEAEAASVRMRGEAEAFAIGAR [FLOT1], the protein stability index is, setting by setting: (treatment: DMSO) 4.62 ± 0.31; (treatment: MLN4924 1 uM, 8 h) 4.75 ± 0.31.
On to SLIILHLSGATKKGTEKQTTSETQ [NETO1], for which the protein stability index runs as follows: (treatment: DMSO) 2.35 ± 0.26; (treatment: MLN4924 1 uM, 8 h) 2.27 ± 0.56.
CDYCDRSFQDNLHNRKKHLNGLQH [ZMAT5]: the protein stability index (treatment: DMSO) amounted to 3.09 ± 0.71 and the protein stability index (treatment: MLN4924 1 uM, 8 h) was found to be 3.11 ± 0.38.
Consider DRLEEQLPWLSLRALKFRERDALE [DNAAF3], for which the protein stability index is 3.4 ± 0.24 (treatment: DMSO) and 3.42 ± 0.19 (treatment: MLN4924 1 uM, 8 h).
Regarding QVEGLTVQYLGQAPELLGGAEPGT [ADAMTS4], the protein stability index turned out to be 4.53 ± 0.51 (treatment: DMSO) and 4.87 ± 0.4 (treatment: MLN4924 1 uM, 8 h).
For the sequence VYASDKEWIRFDQSNVLCSIFGIC [PTGFR], the protein stability index stood at 2.56 ± 1.4 (treatment: DMSO) and 2.24 ± 0.78 (treatment: MLN4924 1 uM, 8 h).
For NPVFQDSWDTESSGSDSGGSSSSS [FAM104A], the protein stability index is, setting by setting: (treatment: DMSO) 5.37 ± 0.37; (treatment: MLN4924 1 uM, 8 h) 5.54 ± 0.26.
The sequence LLFEYPESSSPARGIAIVSVLVIL [KCNA4] gave a protein stability index (treatment: DMSO) of 2.92 ± 0.2 and a protein stability index (treatment: MLN4924 1 uM, 8 h) of 3 ± 0.36.
As to DMKPITVGGKIVGSLCAIAGVLTI [KCNA4], the protein stability index (treatment: DMSO) was 2.88 ± 0.57 and the protein stability index (treatment: MLN4924 1 uM, 8 h) is 3.11 ± 0.32.
The corresponding values for HEALSRLWELCHLWLRPEVHTKEQ [ZNF396] are 2.11 ± 0.45 and 2.4 ± 0.14.
On to KQPRKKRGRYRQYNSEILEEAISV [LCOR], for which the protein stability index reads like this: (treatment: DMSO) 3.92 ± 0.16; (treatment: MLN4924 1 uM, 8 h) 3.98 ± 0.13.
For the sequence QLVVMHPTPQVDELDILPIHPPSG [BTBD10], the protein stability index stood at 3.74 ± 0.1 (treatment: DMSO) and 3.75 ± 0.11 (treatment: MLN4924 1 uM, 8 h).

(Values after the supplement of paper PMC10567573.)
